Measured values from patent publication US5674838A, “Hirudin derivatives and a process for their preparation” (Hoechst Aktiengesellschaft, priority 1994, dated 1997).

Columns and labels:
[1] = target: recombinantly obtained desulfato-Tyr63 hirudin (leech (Hirudo medicinalis), made recombinantly in yeast cells)
Rhesus monkeys = experiment: anticoagulatory effect following intravenous administration to Rhesus monkeys; format: in vivo
Excerpt: Amino acid analysis of the product conforms with the composition which is to be expected from the amino acid sequence. Edman sequence analysis indicates 2 N-terminal amino acid residues Leu(1) and Asn(37).

“chymotrypsin (Merck, Darmstadt) (enzyme)” showed a transpeptidation at Tyr63; composition of the crude product by analytical HPLC [1] of 65.2%.

With “(hirudin 1-63)-Thr(64)-Arg(65)-Arg(66)--OH [Example 3]” the “anticoagulatory effect (activity compared with starting hirudin)” value (Rhesus monkeys; intravenous administration to Rhesus monkeys (1 mg/kg), test conditions per Jurgens 1952) was “virtually identical to that of the starting hirudin”.

B1: (hirudin 1-36)-Thr, (hirudin 37-65) (protein)
chain 1: LTYTDCTESGQNLCLCEGSNVCGQGNKCILGSDGEKT
chain 2: NQCVTGEGTPKPQSHNDGDFEEIPEEYLQ
In the case of B1, the “anticoagulatory effect (activity compared with starting hirudin)” value (Rhesus monkeys; intravenous administration to Rhesus monkeys, dose not given) is reported as “virtually identical to that of the starting hirudin”.
